IntAct's records for PubMed 14978263

Biological target: csk21_arath CKA1 (UniProt Q08467)
Sequence (Q08467 whole entry): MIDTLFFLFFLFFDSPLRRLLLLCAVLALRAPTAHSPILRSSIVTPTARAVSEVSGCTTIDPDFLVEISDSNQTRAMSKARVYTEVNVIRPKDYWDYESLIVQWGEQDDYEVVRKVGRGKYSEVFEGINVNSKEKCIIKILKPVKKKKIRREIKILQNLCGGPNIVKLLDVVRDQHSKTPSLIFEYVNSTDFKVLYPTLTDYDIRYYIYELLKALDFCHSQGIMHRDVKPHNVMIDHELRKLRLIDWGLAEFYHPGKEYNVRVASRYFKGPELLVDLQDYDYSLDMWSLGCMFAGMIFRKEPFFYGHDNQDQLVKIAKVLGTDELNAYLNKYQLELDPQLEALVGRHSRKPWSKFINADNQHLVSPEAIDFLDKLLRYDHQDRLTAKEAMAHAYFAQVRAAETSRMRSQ

Sequence of Protein CCA1 (Arabidopsis thaliana (Mouse-ear cress)), P92973 S6A (P92973 whole entry S6A): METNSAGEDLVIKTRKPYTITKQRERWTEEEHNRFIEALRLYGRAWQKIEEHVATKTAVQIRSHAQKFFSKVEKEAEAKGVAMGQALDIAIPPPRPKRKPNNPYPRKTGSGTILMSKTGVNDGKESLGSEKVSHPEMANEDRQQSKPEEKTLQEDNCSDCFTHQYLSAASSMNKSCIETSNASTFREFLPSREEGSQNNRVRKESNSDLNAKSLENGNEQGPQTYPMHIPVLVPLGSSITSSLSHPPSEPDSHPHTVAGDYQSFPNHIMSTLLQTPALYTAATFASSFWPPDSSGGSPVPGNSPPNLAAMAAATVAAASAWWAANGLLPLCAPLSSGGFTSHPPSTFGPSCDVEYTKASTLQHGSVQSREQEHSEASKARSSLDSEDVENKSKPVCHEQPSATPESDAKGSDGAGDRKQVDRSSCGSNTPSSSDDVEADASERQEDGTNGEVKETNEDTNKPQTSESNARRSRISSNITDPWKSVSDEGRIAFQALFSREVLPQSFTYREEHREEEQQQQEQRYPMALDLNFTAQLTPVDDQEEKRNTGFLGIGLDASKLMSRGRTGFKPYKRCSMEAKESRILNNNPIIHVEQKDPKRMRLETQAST
Sequence of Protein CCA1 (Arabidopsis thaliana (Mouse-ear cress)), P92973 S5A (P92973 whole entry S5A): as the sequence (P92973 whole entry S6A) above, with S5A, A6S counted along it

effect of a mutation on the interaction | Substance
decreasing interaction | Protein CCA1 (Arabidopsis thaliana (Mouse-ear cress)), P92973 S5A
decreasing interaction | Protein CCA1 (Arabidopsis thaliana (Mouse-ear cress)), P92973 S432A
decreasing interaction | Protein CCA1 (Arabidopsis thaliana (Mouse-ear cress)), P92973 S433A
decreasing interaction | Protein CCA1 (Arabidopsis thaliana (Mouse-ear cress)), P92973 S484A
decreasing interaction | Protein CCA1 (Arabidopsis thaliana (Mouse-ear cress)), P92973 S6A
decreasing interaction | Protein CCA1 (Arabidopsis thaliana (Mouse-ear cress)), P92973 S431A
